Source: the supplement of paper PMC10065799, “High-throughput profiling of sequence recognition by tyrosine kinases and SH2 domains using bacterial peptide display” (eLife, 2023)

test system: c-Src; test: phosphorylation enrichment, bacterial display (enrichment ratio); higher = better substrate or ligand; peptides without Tyr show the background
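Wherever SH2 binding enrichment of the phosphorylated peptide, bacterial display is given: peptide library displayed on the E. coli surface as eCPX fusions, selected cells deep-sequenced, score is each peptide's frequency after selection divided by its frequency in the input.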
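Wherever phosphorylation enrichment, bacterial display is given: 11-residue human phosphosite peptides and single-mutation variants displayed on the E. coli surface, counted by deep sequencing, each peptide's frequency after selection divided by its frequency in the unselected input library; frequency after pTyr selection over input frequency; kinase dosed for 20-30% of maximal phosphorylation in three min.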

Sequence | phosphorylation enrichment
AGREEYSAMRD [KRAS_Y64_Q61R] | 0.421
TDGNGYISFNE [LCP1_Y28] | 0.603
ETDSEYVKLSK [C7orf57_Y70_A74S] | 0.451
RASSSYRETPS [SORBS1_Y79] | 0.775
EKKDVYKTGEQ [CFH_Y1008_A1010T] | 0.438
QMQAAYQKAVA [HBD_Y131_V134A] | 0.307
RLNWIYFKDQT [RS1_Y165_YF] | 0.855
RTCSSYTIEKI [PARP15_Y520_A521T] | 0.544
KNITEYCRDLI [RECQL_Y492] | 0.42
MVIPNYSSRTE [UROC1_Y185] | 0.446
HNVPICEGFAL [ACTC1_Y168_Y168C_YF] | 0.621
GGGFGYQKTKK [DDX18_Y643] | 0.3
LNEQHYGGLTG [PGAM4_Y92_R90Q] | 1.04
KGFRGYSFDDI [TMEM230_Y110_YF] | 0.452
VDTAMYATMQR [TPO_Y55] | 3.92
AAARPYHIQKW [ACSBG1_Y677] | 0.62
VSSPKYGSNDE [TMCC2_Y473_D476N] | 0.514

Sequence | phosphorylation enrichment
KLKRSYCSPDI [USP8_Y717_S718C] | 0.433
CPSLPYSPVSS [CAMKK2_Y128] | 0.787
FQLPFYNTVPS [BMPR1A_Y458_M460T_YF] | 0.565
YPPTHYIRRMP [SLC4A11_Y820_V824M] | 0.381
LDYNEYFRYLN [HPRT1_Y198_D201Y] | 2.04
KDQGGYAMHQD [MAPT_Y29_T30A] | 0.487
CPASVYTKRCS [CPT2_Y508_R503C] | 0.431
ARMTNYGLPRY [TSPAN12_Y138] | 0.534
RFVFFYSFLLK [PTEN_Y178_YF] | 1.05
LLKKMYLMLDN [STAT1_Y203] | 0.305
GIVEDYRPPFF [ACVRL1_Y421_YF] | 0.42
KIIRRYVSSEG [ANK2_Y3907] | 0.458
KSRQIYDAFIM [GRK3_Y109_R104K_YF] | 9.72
RDIHDYIKHLG [UNC13C_Y308] | 0.487
HDRNTYEKYLG [TF_Y666] | 1.82
EQKKYYNAMKN [SCN5A_Y1495_K1500N] | 0.359

molecular target: Grb2 SH2 (UniProt P62993); test: SH2 binding enrichment of the phosphorylated peptide, bacterial display (enrichment ratio); higher = better substrate or ligand; peptides without Tyr show the background
Sequence (P62993 whole entry, looked up): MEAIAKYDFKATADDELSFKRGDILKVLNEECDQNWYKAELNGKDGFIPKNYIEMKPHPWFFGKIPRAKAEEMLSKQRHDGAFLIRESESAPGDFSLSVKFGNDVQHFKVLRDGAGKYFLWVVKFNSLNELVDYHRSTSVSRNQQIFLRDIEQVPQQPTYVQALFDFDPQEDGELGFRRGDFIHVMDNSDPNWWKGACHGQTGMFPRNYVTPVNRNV

Sequence | SH2 binding enrichment
AGREEYSAMRD [KRAS_Y64_Q61R] | 0.98
TDGNGYISFNE [LCP1_Y28] | 0.922
ETDSEYVKLSK [C7orf57_Y70_A74S] | 1.1
RASSSYRETPS [SORBS1_Y79] | 0.876
EKKDVYKTGEQ [CFH_Y1008_A1010T] | 0.771
QMQAAYQKAVA [HBD_Y131_V134A] | 0.893
RLNWIYFKDQT [RS1_Y165_YF] | 1.01
RTCSSYTIEKI [PARP15_Y520_A521T] | 0.813
KNITEYCRDLI [RECQL_Y492] | 0.99
MVIPNYSSRTE [UROC1_Y185] | 0.711
HNVPICEGFAL [ACTC1_Y168_Y168C_YF] | 0.871
GGGFGYQKTKK [DDX18_Y643] | 1.05
LNEQHYGGLTG [PGAM4_Y92_R90Q] | 0.958
KGFRGYSFDDI [TMEM230_Y110_YF] | 0.863
VDTAMYATMQR [TPO_Y55] | 0.878
AAARPYHIQKW [ACSBG1_Y677] | 1.41
VSSPKYGSNDE [TMCC2_Y473_D476N] | 0.722

Sequence | SH2 binding enrichment
KLKRSYCSPDI [USP8_Y717_S718C] | 0.931
CPSLPYSPVSS [CAMKK2_Y128] | 0.978
FQLPFYNTVPS [BMPR1A_Y458_M460T_YF] | 0.911
YPPTHYIRRMP [SLC4A11_Y820_V824M] | 0.875
LDYNEYFRYLN [HPRT1_Y198_D201Y] | 2.06
KDQGGYAMHQD [MAPT_Y29_T30A] | 0.805
CPASVYTKRCS [CPT2_Y508_R503C] | 0.982
ARMTNYGLPRY [TSPAN12_Y138] | 1
RFVFFYSFLLK [PTEN_Y178_YF] | 1.45
LLKKMYLMLDN [STAT1_Y203] | 1.14
GIVEDYRPPFF [ACVRL1_Y421_YF] | 0.818
KIIRRYVSSEG [ANK2_Y3907] | 0.637
KSRQIYDAFIM [GRK3_Y109_R104K_YF] | 0.703
RDIHDYIKHLG [UNC13C_Y308] | 0.92
HDRNTYEKYLG [TF_Y666] | 0.935
EQKKYYNAMKN [SCN5A_Y1495_K1500N] | 0.664

molecular target: SHP2-C SH2; test: as above

Sequence | SH2 binding enrichment
AGREEYSAMRD [KRAS_Y64_Q61R] | 0.598
TDGNGYISFNE [LCP1_Y28] | 1.98
ETDSEYVKLSK [C7orf57_Y70_A74S] | 0.588
RASSSYRETPS [SORBS1_Y79] | 0.844
EKKDVYKTGEQ [CFH_Y1008_A1010T] | 0.494
QMQAAYQKAVA [HBD_Y131_V134A] | 0.76
RLNWIYFKDQT [RS1_Y165_YF] | 1.01
RTCSSYTIEKI [PARP15_Y520_A521T] | 0.739
KNITEYCRDLI [RECQL_Y492] | 0.762
MVIPNYSSRTE [UROC1_Y185] | 0.488
HNVPICEGFAL [ACTC1_Y168_Y168C_YF] | 1.16
GGGFGYQKTKK [DDX18_Y643] | 0.808
LNEQHYGGLTG [PGAM4_Y92_R90Q] | 0.761
KGFRGYSFDDI [TMEM230_Y110_YF] | 0.678
VDTAMYATMQR [TPO_Y55] | 0.764
AAARPYHIQKW [ACSBG1_Y677] | 1.27
VSSPKYGSNDE [TMCC2_Y473_D476N] | 0.657

Sequence | SH2 binding enrichment
KLKRSYCSPDI [USP8_Y717_S718C] | 0.907
CPSLPYSPVSS [CAMKK2_Y128] | 0.855
FQLPFYNTVPS [BMPR1A_Y458_M460T_YF] | 0.816
YPPTHYIRRMP [SLC4A11_Y820_V824M] | 0.765
LDYNEYFRYLN [HPRT1_Y198_D201Y] | 1.18
KDQGGYAMHQD [MAPT_Y29_T30A] | 0.399
CPASVYTKRCS [CPT2_Y508_R503C] | 0.765
ARMTNYGLPRY [TSPAN12_Y138] | 0.761
RFVFFYSFLLK [PTEN_Y178_YF] | 1.43
LLKKMYLMLDN [STAT1_Y203] | 1.24
GIVEDYRPPFF [ACVRL1_Y421_YF] | 0.616
KIIRRYVSSEG [ANK2_Y3907] | 0.533
KSRQIYDAFIM [GRK3_Y109_R104K_YF] | 0.947
RDIHDYIKHLG [UNC13C_Y308] | 0.97
HDRNTYEKYLG [TF_Y666] | 0.874
EQKKYYNAMKN [SCN5A_Y1495_K1500N] | 0.809

molecular target: c-Src SH2; test: as above

Sequence | SH2 binding enrichment
AGREEYSAMRD [KRAS_Y64_Q61R] | 1.02
TDGNGYISFNE [LCP1_Y28] | 36
ETDSEYVKLSK [C7orf57_Y70_A74S] | 0.753
RASSSYRETPS [SORBS1_Y79] | 0.491
EKKDVYKTGEQ [CFH_Y1008_A1010T] | 0.376
QMQAAYQKAVA [HBD_Y131_V134A] | 0.42
RLNWIYFKDQT [RS1_Y165_YF] | 0.842
RTCSSYTIEKI [PARP15_Y520_A521T] | 0.59
KNITEYCRDLI [RECQL_Y492] | 0.68
MVIPNYSSRTE [UROC1_Y185] | 0.55
HNVPICEGFAL [ACTC1_Y168_Y168C_YF] | 0.555
GGGFGYQKTKK [DDX18_Y643] | 0.712
LNEQHYGGLTG [PGAM4_Y92_R90Q] | 0.518
KGFRGYSFDDI [TMEM230_Y110_YF] | 0.453
VDTAMYATMQR [TPO_Y55] | 1.55
AAARPYHIQKW [ACSBG1_Y677] | 1.19
VSSPKYGSNDE [TMCC2_Y473_D476N] | 0.519

Sequence | SH2 binding enrichment
KLKRSYCSPDI [USP8_Y717_S718C] | 0.785
CPSLPYSPVSS [CAMKK2_Y128] | 0.712
FQLPFYNTVPS [BMPR1A_Y458_M460T_YF] | 5.8
YPPTHYIRRMP [SLC4A11_Y820_V824M] | 0.606
LDYNEYFRYLN [HPRT1_Y198_D201Y] | 0.765
KDQGGYAMHQD [MAPT_Y29_T30A] | 0.485
CPASVYTKRCS [CPT2_Y508_R503C] | 0.584
ARMTNYGLPRY [TSPAN12_Y138] | 0.5
RFVFFYSFLLK [PTEN_Y178_YF] | 0.552
LLKKMYLMLDN [STAT1_Y203] | 0.957
GIVEDYRPPFF [ACVRL1_Y421_YF] | 0.521
KIIRRYVSSEG [ANK2_Y3907] | 0.421
KSRQIYDAFIM [GRK3_Y109_R104K_YF] | 0.477
RDIHDYIKHLG [UNC13C_Y308] | 0.507
HDRNTYEKYLG [TF_Y666] | 1.21
EQKKYYNAMKN [SCN5A_Y1495_K1500N] | 0.431
